According to doi:10.1101/2020.08.21.260323:

What was measured:
[1] = target: SpaKC, class III lanthipeptide synthetase (LanKC) homolog from S. sparsogenes ATCC 25498 (S. sparsogenes ATCC 25498); assay: MST
[2] = target: SpaKC-SpaF complex (S. sparsogenes ATCC 25498); assay: MST
[3] = target: SpaF, FMN-dependent cysteine decarboxylase of the spa gene cluster (S. sparsogenes ATCC 25498); assay: crystal structure

| Substance | Kd [1] [nM] | Kd [2] [nM] | stoichiometry N [3] |
| --- | --- | --- | --- |
| SpaA leader peptide | 275 | – | – |
| SpaA precursor peptide | 217 | 94 | – |
| SpaF, FMN-dependent cysteine decarboxylase of the spa gene cluster (enzyme) | 182 | – | 12 |
| TvaF, cysteine decarboxylase from thioviridamide biosynthesis (enzyme) | 2270 | – | – |
